Results on two molecules are retold here after patent publication US20160200782A1.

Holding throughout (assay): cell-based or functional assay
In assay [1] the target is CK1δ(h) (human), P48730.
In assay [2] the target is CaMKIIδ(h) (human), Q13557.
Assay [3] concerns the target CaMKIδ(h) (human), Q8IU85.
For assay [4], the target named is JNK2α2(h) (human), P45984.
Assay [5] concerns the target MKK7β(h) (human), O14733.
For assay [6], the target named is PKCβI(h) (human), P05771.
The target in assay [7] is PKG1α(h) (human), Q13976.
Chain of PKG1α(h) (human), Q13976 (Q13976 whole entry): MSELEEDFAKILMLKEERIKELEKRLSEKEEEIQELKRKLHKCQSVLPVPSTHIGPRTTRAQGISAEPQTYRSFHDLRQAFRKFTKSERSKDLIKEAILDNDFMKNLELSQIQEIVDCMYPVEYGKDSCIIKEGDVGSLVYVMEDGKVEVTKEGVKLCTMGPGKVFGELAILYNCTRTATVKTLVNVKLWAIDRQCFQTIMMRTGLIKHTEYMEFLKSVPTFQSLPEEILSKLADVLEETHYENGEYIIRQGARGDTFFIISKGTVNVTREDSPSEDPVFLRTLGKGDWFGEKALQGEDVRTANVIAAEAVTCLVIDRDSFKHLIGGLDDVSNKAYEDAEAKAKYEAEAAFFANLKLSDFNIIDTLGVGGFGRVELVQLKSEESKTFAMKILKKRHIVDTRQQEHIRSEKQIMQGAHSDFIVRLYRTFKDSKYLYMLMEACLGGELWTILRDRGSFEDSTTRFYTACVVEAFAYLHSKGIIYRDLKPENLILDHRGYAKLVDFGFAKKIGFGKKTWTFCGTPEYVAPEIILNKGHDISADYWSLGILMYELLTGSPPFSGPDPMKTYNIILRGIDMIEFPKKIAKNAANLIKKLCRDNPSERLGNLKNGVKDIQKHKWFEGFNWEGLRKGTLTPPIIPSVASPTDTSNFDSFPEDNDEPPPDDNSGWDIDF

Chain of CaMKIδ(h) (human), Q8IU85 (Q8IU85 whole entry, stated change not applied): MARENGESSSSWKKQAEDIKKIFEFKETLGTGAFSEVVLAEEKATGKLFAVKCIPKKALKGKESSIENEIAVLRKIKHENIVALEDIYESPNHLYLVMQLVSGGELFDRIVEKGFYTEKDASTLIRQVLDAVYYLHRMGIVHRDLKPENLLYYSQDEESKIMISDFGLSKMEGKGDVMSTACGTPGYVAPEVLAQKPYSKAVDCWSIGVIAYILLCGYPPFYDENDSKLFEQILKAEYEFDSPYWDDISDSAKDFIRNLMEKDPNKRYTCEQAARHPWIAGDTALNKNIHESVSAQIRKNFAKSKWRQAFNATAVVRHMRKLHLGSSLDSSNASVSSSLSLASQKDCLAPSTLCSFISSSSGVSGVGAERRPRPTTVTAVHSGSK
Chain of CaMKIIδ(h) (human), Q13557 (Q13557 whole entry, stated change not applied): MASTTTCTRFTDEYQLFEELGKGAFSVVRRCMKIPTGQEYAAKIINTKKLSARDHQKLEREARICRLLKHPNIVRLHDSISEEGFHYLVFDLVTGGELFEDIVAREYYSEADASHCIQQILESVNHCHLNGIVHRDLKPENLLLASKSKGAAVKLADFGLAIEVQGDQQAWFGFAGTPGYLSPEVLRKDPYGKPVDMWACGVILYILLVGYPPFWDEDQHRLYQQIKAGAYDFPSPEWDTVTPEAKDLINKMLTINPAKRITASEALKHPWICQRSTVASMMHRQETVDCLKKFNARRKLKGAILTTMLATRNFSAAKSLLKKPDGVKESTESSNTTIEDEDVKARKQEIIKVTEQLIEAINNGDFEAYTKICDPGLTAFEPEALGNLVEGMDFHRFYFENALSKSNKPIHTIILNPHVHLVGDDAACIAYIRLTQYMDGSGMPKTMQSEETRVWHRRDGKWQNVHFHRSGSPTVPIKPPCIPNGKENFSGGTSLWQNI
Chain of PKCβI(h) (human), P05771 (P05771 whole entry): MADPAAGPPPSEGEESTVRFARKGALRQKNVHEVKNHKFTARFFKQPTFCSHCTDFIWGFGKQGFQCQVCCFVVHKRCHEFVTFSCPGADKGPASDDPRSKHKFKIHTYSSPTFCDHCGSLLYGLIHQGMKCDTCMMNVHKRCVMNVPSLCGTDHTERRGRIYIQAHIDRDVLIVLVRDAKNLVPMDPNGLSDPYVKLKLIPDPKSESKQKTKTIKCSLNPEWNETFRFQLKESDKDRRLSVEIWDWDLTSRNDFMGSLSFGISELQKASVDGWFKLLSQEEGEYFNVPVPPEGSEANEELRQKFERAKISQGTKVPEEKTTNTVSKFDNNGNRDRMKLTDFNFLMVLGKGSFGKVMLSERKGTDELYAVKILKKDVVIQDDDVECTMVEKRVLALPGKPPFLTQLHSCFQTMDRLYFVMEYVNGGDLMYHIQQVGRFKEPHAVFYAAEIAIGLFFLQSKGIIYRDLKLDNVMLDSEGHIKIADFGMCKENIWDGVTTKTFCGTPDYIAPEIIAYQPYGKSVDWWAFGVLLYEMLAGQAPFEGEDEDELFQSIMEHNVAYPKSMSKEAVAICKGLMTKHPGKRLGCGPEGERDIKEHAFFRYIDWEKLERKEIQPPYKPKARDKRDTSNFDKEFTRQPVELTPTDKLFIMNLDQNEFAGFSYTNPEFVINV
Chain of CK1δ(h) (human), P48730 (P48730 1-294, stated change not applied): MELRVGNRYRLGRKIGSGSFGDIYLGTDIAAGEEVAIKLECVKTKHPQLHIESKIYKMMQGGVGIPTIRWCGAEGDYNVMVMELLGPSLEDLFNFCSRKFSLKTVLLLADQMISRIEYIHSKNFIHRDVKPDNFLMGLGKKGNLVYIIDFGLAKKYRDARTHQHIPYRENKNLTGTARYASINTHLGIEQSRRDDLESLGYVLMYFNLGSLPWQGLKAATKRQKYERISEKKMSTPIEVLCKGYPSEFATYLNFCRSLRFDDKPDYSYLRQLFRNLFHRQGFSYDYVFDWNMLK
Chain of MKK7β(h) (human), O14733 (O14733 whole entry): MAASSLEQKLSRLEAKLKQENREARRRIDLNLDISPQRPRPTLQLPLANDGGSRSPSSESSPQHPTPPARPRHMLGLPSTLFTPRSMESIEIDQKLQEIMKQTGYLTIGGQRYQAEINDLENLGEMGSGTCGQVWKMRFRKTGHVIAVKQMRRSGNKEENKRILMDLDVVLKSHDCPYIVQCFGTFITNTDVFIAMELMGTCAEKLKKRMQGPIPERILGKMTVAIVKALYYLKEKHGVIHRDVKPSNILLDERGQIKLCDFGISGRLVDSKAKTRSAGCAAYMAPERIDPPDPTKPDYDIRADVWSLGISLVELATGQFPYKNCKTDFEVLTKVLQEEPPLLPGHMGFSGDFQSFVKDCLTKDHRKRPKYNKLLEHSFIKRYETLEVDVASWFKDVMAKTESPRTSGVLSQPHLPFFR

B1: MMI-0400 (peptide)
peptide: KAFAKLAARLYRKALARQLGVAA
As for B1, the % activity in assay [1] was found to be 93%; in assay [2], 2%; in assay [3], 17%; in assay [4] it was 96%; in assay [5], 94%; in assay [6], 78%. The % activity in assay [7] was 58%.

B2: MMI-0300 (peptide)
peptide: FAKLAARLYRKALARQLGVAA
As for B2, the % activity in assay [1] amounted to 92%; in assay [2] it was 1%; in assay [3] it was 10%; in assay [4] it was 98%; in assay [5], 100%; in assay [6], 78%. The % activity in assay [7] is 64%.
